Source: article PMC4854488 (Biochemistry, 2016)

Key:
[1] = target: T1, oxalate decarboxylase (OxDC) (Bacillus subtilis, UniProt O34714, DEL162-162); experiment: X-ray crystal structure, […] Å; assay type: binding; details: Co(II)-substituted ΔE162 variant; oxalate end-on (monodentate) on Co(II) in N-terminal domain; cocrystallised, well pH 9.5, 17 °C
T1 construct: C-terminal His6 tag kept, expressed in E. coli BL21(DE3), Mn-containing (Co(II)-substituted for the crystal; model residues 6-382)

purified protein = substrate: O=C(O)C(=O)O; experiment: purified protein; details: 25 °C
[2] = ΔE162 variant, decarboxylase activity, Mn enzyme (1.3 Mn/monomer), 100 mM citrate pH 4.2, 300 uM o-phenylenediamine, pH 4.2
[3] = ΔE162 variant, oxidase activity, Mn enzyme (1.3 Mn/monomer), 50 mM succinate pH 4.0, O2 co-substrate, pH 4.0
[4] = decarboxylase activity, Mn enzyme (1.4 Mn/monomer), 100 mM citrate pH 4.2, 300 uM o-phenylenediamine, pH 4.2
[5] = oxidase activity, Mn enzyme (1.4 Mn/monomer), 50 mM succinate pH 4.0, O2 co-substrate, pH 4.0
[6] = DESN variant, decarboxylase activity, Mn enzyme (1.5 Mn/monomer), 100 mM citrate pH 4.2, 300 uM o-phenylenediamine, pH 4.2
[7] = DESN variant, oxidase activity, Mn enzyme (1.5 Mn/monomer), 50 mM succinate pH 4.0, O2 co-substrate, pH 4.0
[8] = DENS variant, decarboxylase activity, Mn enzyme (1.6 Mn/monomer), 100 mM citrate pH 4.2, 300 uM o-phenylenediamine, pH 4.2
[9] = DDSN variant, decarboxylase activity, Mn enzyme (1.5 Mn/monomer), 100 mM citrate pH 4.2, 300 uM o-phenylenediamine, pH 4.2
[10] = DDNS variant, decarboxylase activity, Mn enzyme (1.5 Mn/monomer), 100 mM citrate pH 4.2, 300 uM o-phenylenediamine, pH 4.2

O=C(O)C(=O)O [oxalate]
X-ray crystal structure, 2.6 Å [1]: we observed an oxalate molecule bound within the N-terminal domain

B1: oxalate decarboxylase (OxDC) (Bacillus subtilis subsp. subtilis str. 168; DEL162-162) (protein)
chain: MKKQNDIPQPIRGDKGATVKIPRNIERDRQNPDMLVPPETDHGTVSNMKFSFSDTHNRLEKGGYAREVTVRELPISENLASVNMRLKPGAIRELHWHKEAEWAYMIYGSARVTIVDEKGRSFIDDVGEGDLWYFPSGLPHSIQALEEGAEFLLVFDDGSFSNSTFQLTDWLAHTPKEVIAANFGVTKEEISNLPGKEKYIFENQLPGSLKDDIVEGPNGEVPYPFTYRLLEQEPIESEGGKVYIADSTNFKVSKTIASALVTVEPGAMRELHWHPNTHEWQYYISGKARMTVFASDGHARTFNYQAGDVGYVPFAMGHYVENIGDEPLVFLEIFKDDHYADVSLNQWLAMLPETFVQAHLDLGKDFTDVLSKEKHPVVKKKCSK
Km (purified protein; [2]): 1.6 ± 0.7 mM | kcat (purified protein; [2]): 0.01 s⁻¹ | kcat/Km (purified protein; [2]): 5 M⁻¹ s⁻¹ | Km (purified protein; [3]): 3 ± 1 mM | kcat (purified protein; [3]): 0.05 s⁻¹ | kcat/Km (purified protein; [3]): 14 M⁻¹ s⁻¹

B2: oxalate decarboxylase (OxDC) (Bacillus subtilis subsp. subtilis str. 168) (protein)
chain: MKKQNDIPQPIRGDKGATVKIPRNIERDRQNPDMLVPPETDHGTVSNMKFSFSDTHNRLEKGGYAREVTVRELPISENLASVNMRLKPGAIRELHWHKEAEWAYMIYGSARVTIVDEKGRSFIDDVGEGDLWYFPSGLPHSIQALEEGAEFLLVFDDGSFSENSTFQLTDWLAHTPKEVIAANFGVTKEEISNLPGKEKYIFENQLPGSLKDDIVEGPNGEVPYPFTYRLLEQEPIESEGGKVYIADSTNFKVSKTIASALVTVEPGAMRELHWHPNTHEWQYYISGKARMTVFASDGHARTFNYQAGDVGYVPFAMGHYVENIGDEPLVFLEIFKDDHYADVSLNQWLAMLPETFVQAHLDLGKDFTDVLSKEKHPVVKKKCSK
Km (purified protein; [4]): 8 ± 1 mM | kcat (purified protein; [4]): 60 s⁻¹ | kcat/Km (purified protein; [4]): 5700 M⁻¹ s⁻¹ | Km (purified protein; [5]): 5.0 ± 0.2 mM | kcat (purified protein; [5]): 0.13 s⁻¹ | kcat/Km (purified protein; [5]): 19 M⁻¹ s⁻¹

B3: oxalate decarboxylase (OxDC) (Bacillus subtilis subsp. subtilis str. 168; N163S/S161D/S164N) (protein)
chain: MKKQNDIPQPIRGDKGATVKIPRNIERDRQNPDMLVPPETDHGTVSNMKFSFSDTHNRLEKGGYAREVTVRELPISENLASVNMRLKPGAIRELHWHKEAEWAYMIYGSARVTIVDEKGRSFIDDVGEGDLWYFPSGLPHSIQALEEGAEFLLVFDDGSFDESNTFQLTDWLAHTPKEVIAANFGVTKEEISNLPGKEKYIFENQLPGSLKDDIVEGPNGEVPYPFTYRLLEQEPIESEGGKVYIADSTNFKVSKTIASALVTVEPGAMRELHWHPNTHEWQYYISGKARMTVFASDGHARTFNYQAGDVGYVPFAMGHYVENIGDEPLVFLEIFKDDHYADVSLNQWLAMLPETFVQAHLDLGKDFTDVLSKEKHPVVKKKCSK
Km (purified protein; [6]): 6 ± 1 mM | kcat (purified protein; [6]): 40 s⁻¹ | kcat/Km (purified protein; [6]): 4400 M⁻¹ s⁻¹ | Km (purified protein; [7]): 11 ± 2 mM | kcat (purified protein; [7]): 0.1 s⁻¹ | kcat/Km (purified protein; [7]): 11 M⁻¹ s⁻¹

B4: oxalate decarboxylase (OxDC) (Bacillus subtilis subsp. subtilis str. 168; S161D) (protein)
chain: MKKQNDIPQPIRGDKGATVKIPRNIERDRQNPDMLVPPETDHGTVSNMKFSFSDTHNRLEKGGYAREVTVRELPISENLASVNMRLKPGAIRELHWHKEAEWAYMIYGSARVTIVDEKGRSFIDDVGEGDLWYFPSGLPHSIQALEEGAEFLLVFDDGSFDENSTFQLTDWLAHTPKEVIAANFGVTKEEISNLPGKEKYIFENQLPGSLKDDIVEGPNGEVPYPFTYRLLEQEPIESEGGKVYIADSTNFKVSKTIASALVTVEPGAMRELHWHPNTHEWQYYISGKARMTVFASDGHARTFNYQAGDVGYVPFAMGHYVENIGDEPLVFLEIFKDDHYADVSLNQWLAMLPETFVQAHLDLGKDFTDVLSKEKHPVVKKKCSK
Km (purified protein; [8]): 10 ± 1 mM | kcat (purified protein; [8]): 63 s⁻¹ | kcat/Km (purified protein; [8]): 3900 M⁻¹ s⁻¹

B5: oxalate decarboxylase (OxDC) (Bacillus subtilis subsp. subtilis str. 168; E162D/N163S/S161D/S164N) (protein)
chain: MKKQNDIPQPIRGDKGATVKIPRNIERDRQNPDMLVPPETDHGTVSNMKFSFSDTHNRLEKGGYAREVTVRELPISENLASVNMRLKPGAIRELHWHKEAEWAYMIYGSARVTIVDEKGRSFIDDVGEGDLWYFPSGLPHSIQALEEGAEFLLVFDDGSFDDSNTFQLTDWLAHTPKEVIAANFGVTKEEISNLPGKEKYIFENQLPGSLKDDIVEGPNGEVPYPFTYRLLEQEPIESEGGKVYIADSTNFKVSKTIASALVTVEPGAMRELHWHPNTHEWQYYISGKARMTVFASDGHARTFNYQAGDVGYVPFAMGHYVENIGDEPLVFLEIFKDDHYADVSLNQWLAMLPETFVQAHLDLGKDFTDVLSKEKHPVVKKKCSK
Km (purified protein; [9]): 3 ± 1 mM | kcat (purified protein; [9]): 9 s⁻¹ | kcat/Km (purified protein; [9]): 2400 M⁻¹ s⁻¹

B6: oxalate decarboxylase (OxDC) (Bacillus subtilis subsp. subtilis str. 168; E162D/S161D) (protein)
chain: MKKQNDIPQPIRGDKGATVKIPRNIERDRQNPDMLVPPETDHGTVSNMKFSFSDTHNRLEKGGYAREVTVRELPISENLASVNMRLKPGAIRELHWHKEAEWAYMIYGSARVTIVDEKGRSFIDDVGEGDLWYFPSGLPHSIQALEEGAEFLLVFDDGSFDDNSTFQLTDWLAHTPKEVIAANFGVTKEEISNLPGKEKYIFENQLPGSLKDDIVEGPNGEVPYPFTYRLLEQEPIESEGGKVYIADSTNFKVSKTIASALVTVEPGAMRELHWHPNTHEWQYYISGKARMTVFASDGHARTFNYQAGDVGYVPFAMGHYVENIGDEPLVFLEIFKDDHYADVSLNQWLAMLPETFVQAHLDLGKDFTDVLSKEKHPVVKKKCSK
Km (purified protein; [10]): 10 ± 2 mM | kcat (purified protein; [10]): 45 s⁻¹ | kcat/Km (purified protein; [10]): 2900 M⁻¹ s⁻¹
